Results reported in the nanobody polyreactivity screen of Harvey et al. (2022).

test: yeast display, Sf9 membrane polyspecificity reagent, FACS + sequencing; frameworks hold sequencing errors
Outline: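 Using colony PCR, genes from sorted yeast display clones were amplified, then sequenced on MiSeq at 2 × 250 and filtered by CDR length. The clones had been stained with 10% biotinylated, detergent-solubilized Sf9 membrane reagent for 1 hour at 4 °C and sorted by FACS into low and high (top ~1%) gates on anti-HA and streptavidin fluorescence. Polyreactivity labels come from the gate of origin.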

| Sequence | polyreactivity (PSR sort gate) |
| --- | --- |
| QVQLVESGGGLVQAGGSLRLSCAASGLTLGDNAMGWSRQAPGNERELVASITNGGSTNYADSVKGRFTISRDNAKNTVYLQMNSLNPEDTAVYYCAVEWTWRSTAYSGGAFDYWGQGTQVTVSS | low polyreactivity |
| QVQLVESGGGLVQAGGSLRLSCAASGLTLGSYAMGWYRQAPGKERELVAAISRRSGRTYYADSVKGRFTISRDNAKNTVYLQMNSLKPEDTAVYYCAAEIPYYVDTPGDDYWGQGTQVTVSS | low polyreactivity |
| QVQLVESGGGLVQAGGSLRLSCAASGLTLKRYAMGWYRQAPGKERELVAAISTRGGSTYYADSVKGRFTISRDNAKNTVYLQMNSLKPEDTAVYYCAAGDYWGQGTQVTVSS | high polyreactivity |
| QVQLVESGGGLVQAGGSLRLSCAASGLTLRENAMGWYRQAPGKERELVAAITNGGSTYYADSVKGRFTISRDNAKNTVYLQMNSLKPEDTAVYYCAADNLTYVISWDSDYWGQGTQVTVSS | low polyreactivity |
| QVQLVESGGGLVQAGGSLRLSCAASGLTLRNSAMGWYRQAPGKERELVAAITTGGGRTYYADSVKGRFTISRDNAKNTVYLQMNSLKPEDTAVYYCAKKPSSARYVTIGFDYWGQGTQVTVSS | low polyreactivity |
| QVQLVESGGGLVQAGGSLRLSCAASGLTLYDYAMGWYRQAPGKERELVADIDFNGGSTSYADSVKGRFTISRDNAKNTVYLQMNSLKPEDTAVYYCNTRDRGDVVTGLDYWGQGTQVTVSS | low polyreactivity |
| QVQLVESGGGLVQAGGSLRLSCAASGLTLYKYAMGWYRQADGKVRELVATSRSRGTSTYYADSVKGRFTISRDNAKNTVYLQMNSLKPEDTAVYDCAADYLYRWLFAYNGGMDYCGQGTQVTVSS | high polyreactivity |
| QVQLVESGGGLVQAGGSLRLSCAASGLTLYLYTMGWYRQAPGTERELVASIDSGTSTKYADSVKGRFTISRDNAKNTVYLQMNSLKPEDTAVYYCAAGVWVTRYFGYYYWGQGTQVTVSS | low polyreactivity |
| QVQLVESGGGLVQAGGSLRLSCAASGLTLYLYTMGWYRQAPRTDRELVASIDSGTSTKYADSVKGRFTISRDHAKYTVYLQMNRLKPVDTAGYDCAAGVWVTRYFGYYYWGQGTQVTVSS | low polyreactivity |
| QVQLVESGGGLVQAGGSLRLSCAASGLTSDYNAMGWYRQAPGKERELVAAISSGGRTYYADSVKGRFTISRDNAKNTVYLQMNSLKPEDTAVYYCAAEFRVLRGYQYDYWGQGTQVTVSS | high polyreactivity |
| QVQLVESGGGLVQAGGSLRLSCAASGLTSYDNTMGWYRQAPGKERELVARIRRTGGGTYYADSVKGRFTISRDNAKNTVYLQMNSMKPEDTAVYYCAATITPYDYDYIWFVYSDHDYWGQGTQVTVSS | low polyreactivity |
| QVQLVESGGGLVQAGGSLRLSCAASGLTVGGNVMGWYRQAPGKERELVAAISRSGDRTYYADSVKGRFTISRDNAKNTVYLQMNSLKPEDTAVYYCAVRVLYRQVFRYDYWGQGTQVTVSS | high polyreactivity |
| QVQLVESGGGLVQAGGSLRLSCAASGLTYANAKGWYRQAPGKERELVATIRYSGGSTYYADSVKGRFTISRDNAKNTVYLQMNSLKPEDTAVYYCAARRTAGYRSGEYDYWGQGTQVTVSS | high polyreactivity |
| QVQLVESGGGLVQAGGSLRLSCAASGLTYYTYAMGWYRQAPGKERELVAAITASGGRTYYADSVKGRFTISRDNAKNTVYLQMNSLKPEDTAVYYCAADIRGDTYDYWGQGTQVNVSS | high polyreactivity |
| QVQLVESGGGLVQAGGSLRLSCAASGMIFGYYVMGWYRQAPGKERELVAAINSGGNTNYADSVKGRFTISRDNAKNTVYLQMNSLKPEDTAVYYCNRSYDSTDIREDYWGQGTQVTVSS | low polyreactivity |
| QVQLVESGGGLVQAGGSLRLSCAASGMIFKYYVMGWYRKAPGKERELVDDIRCSGGITSYADSVKGRFTISRDNAKNTVYLQMNSLKPEDTAVYYCAVAHSRLRTAYTFSVQRYDYWGQGTQVTVSS | low polyreactivity |
| QVQLVESGGGLVQAGGSLRLSCAASGMTFAENAMGWYREAPGKERELVAANSASGGSTYYADSVKGRFTISRDNAKNTVYLQMNSLKPEDTAVFYCATRVAFLWPRRDYDYWGQGTQVTVSS | low polyreactivity |
